# Target: HLA-A*02:01 (Homo sapiens, UniProt P04439, D140Y/D185E/D98H/E176V/E277Q/G131W/G231S/I119V/I121R/I166T/I218V/L300P/L318F/N151K/N90K/P208A/P217A/Q86G/Q94H/R138H/R169H/T345S)
# Test: MHC binding assay (UV-ligand exchange, ELISA of stabilized MHC complexes)
# Conditions: MHC class I binding score; binding to HLA-A*02:01 ranged by peptide exchange yield (UV-ligand exchange, ELISA)
# Description: Candidate peptides for T cell based therapies according to the present invention were further tested for their MHC binding capacity (affinity). The individual peptide-MHC complexes were produced by UV-ligand exchange, where a UV-sensitive peptide is cleaved upon UV-irradiation, and exchanged with the peptide of interest as analyzed. Only peptide candidates that can effectively bind and stabilize the peptide-receptive MHC molecules prevent dissociation of the MHC complexes. To determine the yield of the exchange reaction, an ELISA was performed based on the detection of the light chain (β2m) of stabilized MHC complexes. The assay was performed as generally described in Rodenko et al. (Rodenko et al., 2006).
# 96 well MAXISorp plates (NUNC) were coated over night with 2 ug/ml streptavidin in PBS at room temperature, washed 4× and blocked for 1h at 37° C. in 2% BSA containing blocking buffer. […] Peptide-MHC monomers of the UV-exchange reaction were diluted 100 fold in blocking buffer. Samples were incubated for 1h at 37° C., washed four times, incubated with 2 ug/ml HRP conjugated anti-82m for 1h at 37° C., washed again and detected with TMB solution that is stopped with […]. Absorption was measured at 450 nm. Candidate peptides that show a high exchange yield (preferably higher than 50%, most preferred higher than 75%) are generally preferred for a generation and production of antibodies or fragments thereof, and/or T cell receptors or fragments thereof, as they show sufficient avidity to the MHC molecules and prevent dissociation of the MHC complexes.
row,Peptide exchange,Substance
1,″+++″ (≥50% = +++),1 (SLMEPPAVLLL; listed as Homo sapiens) [compound 1]
2,″++++″ (≥75% = ++++),4 (GIMEHITKI; listed as Homo sapiens) [compound 4]
3,″+++″ (≥50% = +++),5 (HLTEVYPEL; listed as Homo sapiens) [compound 5]
4,″+++″ (≥50% = +++),6 (VLVSDGVHSV; listed as Homo sapiens) [compound 6]
5,″++++″ (≥75% = ++++),7 (SLVGLLLYL; listed as Homo sapiens) [compound 7]
6,″++″ (≥20% = ++),9 (GAAKDLPGV; listed as Homo sapiens) [compound 9]
7,″++++″ (≥75% = ++++),10 (FLATFPLAAV; listed as Homo sapiens) [compound 10]
8,″+++″ (≥50% = +++),12 (SLWPDPMEV; listed as Homo sapiens) [compound 12]
9,″+++″ (≥50% = +++),13 (YLMDESLNL; listed as Homo sapiens) [compound 13]
10,″+++″ (≥50% = +++),14 (AAYGGLNEKSFV; listed as Homo sapiens) [compound 14]
11,″++″ (≥20% = ++),15 (VLLTFKIFL; listed as Homo sapiens) [compound 15]
12,″+++″ (≥50% = +++),16 (VLFQGQASL; listed as Homo sapiens) [compound 16]
13,″+++″ (≥50% = +++),17 (GLLPGDRLVSV; listed as Homo sapiens) [compound 17]
14,″++″ (≥20% = ++),18 (YLVAKLVEV; listed as Homo sapiens) [compound 18]
15,″++++″ (≥75% = ++++),19 (FMVDNEAIYDI; listed as Homo sapiens) [compound 19]
16,″+++″ (≥50% = +++),20 (RMIEYFIDV; listed as Homo sapiens) [compound 20]
17,″++″ (≥20% = ++),21 (VLDELDMEL; listed as Homo sapiens) [compound 21]
18,″+++″ (≥50% = +++),22 (IMEENPGIFAV; listed as Homo sapiens) [compound 22]
19,″+++″ (≥50% = +++),23 (VLLDDIFAQL; listed as Homo sapiens) [compound 23]
20,″++″ (≥20% = ++),24 (SLSDGLEEV; listed as Homo sapiens) [compound 24]
21,″+++″ (≥50% = +++),25 (FLPDEPYIKV; listed as Homo sapiens) [compound 25]
22,″+++″ (≥50% = +++),26 (ALLELAEEL; listed as Homo sapiens) [compound 26]
23,″+++″ (≥50% = +++),27 (ILADIVISA; listed as Homo sapiens) [compound 27]
24,″+++″ (≥50% = +++),28 (QLLDETSAITL; listed as Homo sapiens) [compound 28]
25,″+++″ (≥50% = +++),29 (KMLGIPISNILMV; listed as Homo sapiens) [compound 29]

row,Peptide exchange,Substance
1,″+++″ (≥50% = +++),30 (LILDWVPYI; listed as Homo sapiens) [compound 30]
2,″++″ (≥20% = ++),31 (YLAPELFVNV; listed as Homo sapiens) [compound 31]
3,″++″ (≥20% = ++),32 (KLDDLTQDLTV; listed as Homo sapiens) [compound 32]
4,″++″ (≥20% = ++),33 (VLLSLLEKV; listed as Homo sapiens) [compound 33]
5,″+++″ (≥50% = +++),34 (ILVEADSLWVV; listed as Homo sapiens) [compound 34]
6,″+++″ (≥50% = +++),35 (KINDTIYEV; listed as Homo sapiens) [compound 35]
7,″+++″ (≥50% = +++),39 (SVAPNLPAV; listed as Homo sapiens) [compound 39]
8,″+++″ (≥50% = +++),40 (TLLVKVFSV; listed as Homo sapiens) [compound 40]
9,″+++″ (≥50% = +++),41 (SLMPHIPGL; listed as Homo sapiens) [compound 41]
10,″+++″ (≥50% = +++),42 (VLLQKIVSA; listed as Homo sapiens) [compound 42]
11,″++″ (≥20% = ++),43 (VLSSLEINI; listed as Homo sapiens) [compound 43]
12,″++″ (≥20% = ++),44 (ILDPISSGFLL; listed as Homo sapiens) [compound 44]
13,″+++″ (≥50% = +++),45 (SLWQDIPDV; listed as Homo sapiens) [compound 45]
14,″+++″ (≥50% = +++),46 (ILTEENIHL; listed as Homo sapiens) [compound 46]
15,″++″ (≥20% = ++),47 (ILLSVPLLVV; listed as Homo sapiens) [compound 47]
16,″+++″ (≥50% = +++),49 (YLPAVFEEV; listed as Homo sapiens) [compound 49]
17,″+++″ (≥50% = +++),50 (SLSELEALM; listed as Homo sapiens) [compound 50]
18,″++++″ (≥75% = ++++),51 (LLPDLEFYV; listed as Homo sapiens) [compound 51]
19,″++++″ (≥75% = ++++),52 (FLLAHGLGFLL; listed as Homo sapiens) [compound 52]
20,″++++″ (≥75% = ++++),53 (KMIETDILQKV; listed as Homo sapiens) [compound 53]
21,″+++″ (≥50% = +++),54 (SLLEQGKEPWMV; listed as Homo sapiens) [compound 54]
22,″++++″ (≥75% = ++++),55 (SLLDLETLSL; listed as Homo sapiens) [compound 55]
23,″+++″ (≥50% = +++),57 (TLAELQPPVQL; listed as Homo sapiens) [compound 57]
24,″+++″ (≥50% = +++),59 (IMEDIILTL; listed as Homo sapiens) [compound 59]
25,″++++″ (≥75% = ++++),61 (FLQGYQLHL; listed as Homo sapiens) [compound 61]

row,Peptide exchange,Substance
1,″++++″ (≥75% = ++++),62 (VLLDVSAGQLLM; listed as Homo sapiens) [compound 62]
2,″++″ (≥20% = ++),63 (YLLPSGGSVTL; listed as Homo sapiens) [compound 63]
3,″++″ (≥20% = ++),64 (YAAPGGLIGV; listed as Homo sapiens) [compound 64]
4,″+++″ (≥50% = +++),66 (FLDENIGGVAV; listed as Homo sapiens) [compound 66]
5,″+++″ (≥50% = +++),67 (TLLAEALVTV; listed as Homo sapiens) [compound 67]
6,″++++″ (≥75% = ++++),68 (SLMELPRGLFL; listed as Homo sapiens) [compound 68]
7,″+++″ (≥50% = +++),69 (FQLDPSSGVLVTV; listed as Homo sapiens) [compound 69]
8,″+++″ (≥50% = +++),70 (GLLDYPVGV; listed as Homo sapiens) [compound 70]
9,″+++″ (≥50% = +++),71 (GILARIASV; listed as Homo sapiens) [compound 71]
10,″+++″ (≥50% = +++),72 (SLLELDGINL; listed as Homo sapiens) [compound 72]
11,″+++″ (≥50% = +++),73 (NIFDLQIYV; listed as Homo sapiens) [compound 73]
12,″+++″ (≥50% = +++),74 (ALLDPEVLSIFV; listed as Homo sapiens) [compound 74]
13,″+++″ (≥50% = +++),75 (GLLEVMVNL; listed as Homo sapiens) [compound 75]
14,″+++″ (≥50% = +++),76 (ILIDSIYKV; listed as Homo sapiens) [compound 76]
15,″++++″ (≥75% = ++++),77 (ILVEADGAWVV; listed as Homo sapiens) [compound 77]
16,″+++″ (≥50% = +++),78 (SLFSSLEPQIQPV; listed as Homo sapiens) [compound 78]
17,″++″ (≥20% = ++),80 (FLYDNLVESL; listed as Homo sapiens) [compound 80]
18,″++″ (≥20% = ++),81 (FLFSQLQYL; listed as Homo sapiens) [compound 81]
19,″+++″ (≥50% = +++),82 (FLSSVTYNL; listed as Homo sapiens) [compound 82]
20,″+++″ (≥50% = +++),83 (ILAPTVMMI; listed as Homo sapiens) [compound 83]
21,″++″ (≥20% = ++),84 (VTFGEKLLGV; listed as Homo sapiens) [compound 84]
22,″+++″ (≥50% = +++),85 (KMSELRVTL; listed as Homo sapiens) [compound 85]
23,″+++″ (≥50% = +++),86 (NLIGKIENV; listed as Homo sapiens) [compound 86]

# From patent publication US10472401B2, “Peptides and combination of peptides for use in immunotherapy against ovarian cancer and other cancers” (immatics biotechnologies GmbH, priority 2015, dated 2019)
